Laboratory results from patent US20070010428A1, “Inhibitors of signal transduction and activator of transcription 3” (priority 2004, published 2007).
[ ]: non-standard residue; d: D form. pY = N[C@@H](Cc1ccc(OP(=O)(O)O)cc1)C(=O)O

What was measured:
[1] = biological target: Stat3 (as in the EMSA of Table 1), P40763; test: EMSA: inhibition of Stat3 dimerization and DNA binding, average of two determinations
[2] = biological target: full length Stat3, P40763; test: fluorescence polarization, full length Stat3 titrated into the FP probe
Sequence of full length Stat3, P40763 (P40763 whole entry): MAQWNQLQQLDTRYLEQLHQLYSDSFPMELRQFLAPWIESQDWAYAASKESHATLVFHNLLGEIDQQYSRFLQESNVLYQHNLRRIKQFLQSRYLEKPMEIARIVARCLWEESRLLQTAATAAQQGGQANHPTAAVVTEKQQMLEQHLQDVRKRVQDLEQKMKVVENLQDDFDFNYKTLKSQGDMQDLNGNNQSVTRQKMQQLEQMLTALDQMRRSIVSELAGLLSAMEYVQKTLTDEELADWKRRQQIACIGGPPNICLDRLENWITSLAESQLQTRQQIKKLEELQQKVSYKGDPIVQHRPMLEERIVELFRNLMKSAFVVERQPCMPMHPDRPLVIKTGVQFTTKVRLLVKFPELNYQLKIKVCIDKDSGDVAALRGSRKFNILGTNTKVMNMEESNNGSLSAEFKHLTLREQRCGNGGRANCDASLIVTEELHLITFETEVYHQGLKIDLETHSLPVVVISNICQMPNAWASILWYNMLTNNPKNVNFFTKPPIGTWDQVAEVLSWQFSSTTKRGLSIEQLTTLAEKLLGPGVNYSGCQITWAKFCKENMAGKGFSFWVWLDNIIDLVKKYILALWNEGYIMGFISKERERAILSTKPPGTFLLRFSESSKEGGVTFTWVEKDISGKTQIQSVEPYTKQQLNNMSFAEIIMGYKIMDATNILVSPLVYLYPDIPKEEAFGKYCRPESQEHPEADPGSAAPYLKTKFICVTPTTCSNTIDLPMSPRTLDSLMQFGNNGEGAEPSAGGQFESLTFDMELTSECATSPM

Sequence of Stat3 (as in the EMSA of Table 1), P40763 (P40763 whole entry): as above

Binder	IC50 [1] [µM]	Kd [2] [µM]
Ac-[pY]LKTKF-NH2 (SMILES CC(=O)N[C@@H](Cc1ccc(OP(=O)(O)O)cc1)C(=O)N[C@@H](CC(C)C)C(=O)N[C@@H](CCCCN)C(=O)N[C@H](C(=O)N[C@@H](CCCCN)C(=O)N[C@@H](Cc1ccccc1)C(N)=O)[C@@H](C)O) [Ac-pTyr-Leu-Lys-Thr-Lys-Phe-NH2]	20	
YINQSV (modifications not checked) [Ac-Y(p)INQSV-NH2 (EGFR Tyr 1068 hexapeptide)]	30	
YHNQPL (modifications not checked) [Ac-Y(p)HNQPL-NH2 (EGFR Tyr 1086 hexapeptide)]	150	
{fluorescein‑5‑carboxyl}-A[pY]LPQTV-NH2 [fluorescein-5-carboxyl-Ala-pTyr-Leu-Pro-Gln-Thr-Val-NH2]		0.05
